From PMC11254524 (Cell Insight, 2024) come the findings set out here.

The experiment concerns the target GST-tagged AKT1 (UniProt P31749 1-480). Briefly: pull-down.

Chain of GST-tagged AKT1 (P31749 whole entry): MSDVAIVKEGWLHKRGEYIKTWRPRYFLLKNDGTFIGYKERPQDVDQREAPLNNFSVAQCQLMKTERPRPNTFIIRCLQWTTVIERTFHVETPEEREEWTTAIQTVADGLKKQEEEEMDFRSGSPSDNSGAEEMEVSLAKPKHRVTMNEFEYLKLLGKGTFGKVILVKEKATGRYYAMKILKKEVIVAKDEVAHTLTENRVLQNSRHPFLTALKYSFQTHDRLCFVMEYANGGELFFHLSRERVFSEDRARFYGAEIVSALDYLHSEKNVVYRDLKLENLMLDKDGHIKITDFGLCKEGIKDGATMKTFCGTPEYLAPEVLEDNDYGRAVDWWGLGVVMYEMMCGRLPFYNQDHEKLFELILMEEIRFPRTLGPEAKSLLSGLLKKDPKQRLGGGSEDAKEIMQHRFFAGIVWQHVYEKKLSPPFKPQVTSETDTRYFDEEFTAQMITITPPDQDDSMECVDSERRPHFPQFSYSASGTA

B1: His-tagged SFN (natural protein, UniProt P31947 1-248, looked up)
chain: MERASLIQKAKLAEQAERYEDMAAFMKGAVEKGEELSCEERNLLSVAYKNVVGGQRAAWRVLSSIEQKSNEEGSEEKGPEVREYREKVETELQGVCDTVLGLLDSHLIKEAGDAESRVFYLKMKGDYYRYLAEVATGDDKKRIIDSARSAYQEAMDISKKEMPPTNPIRLGLALNFSVFHYEIANSPEEAISLAKTTFDEAMADLHTLSEDSYKDSTLIMQLLRDNLTLWTADNAGEEGGEAPQEPQS
Consider B1, for which the binding result is reported as “binds”.
